Results reported in the supplement of paper PMC6757056.
± gives the standard deviation of the averaged measurements.

B1: library; a variant is named by its letters at N, in order (parent)
chain: GCUGUCACCGGUGUAUUACCCUAGUGGUCGACCGGUCUGAUGAGUCUNNNNNNAGACGAAACAGC

What was measured:
hypoxanthine [1] = variants of: B1; assay: FACS-Seq fitted mean relative fluorescence mCherry/BFP without ligand (log10 relative fluorescence); ligand: hypoxanthine (xanthine aptamer); higher = higher reporter protein expression; details: HEK293T, ligand present: no
Summary of the method: (§1)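 To measure fluorescence, a normal distribution was fitted to read counts across sorted bins. The reporter libraries were HEK293T cells transduced by lentivirus with mCherry under ribozyme-switch control and an EF1α-BFP marker, enriched and then kept with or without ligand for 48 h. Sorting used 6 mCherry/BFP bins, and bin genomic DNA was PCR-amplified and sequenced on MiSeq. Fitted means of log10(mCherry/BFP) were scaled to five spiked-in control ribozymes.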

hypoxanthine [2] = variants of: B1; assay: normalized RNA/DNA level with ligand (relative to sTRSVctl = 100) (log10 (% of sTRSVctl)); ligand: hypoxanthine (xanthine aptamer); higher = less ribozyme self-cleavage, higher mRNA level; details: ligand concentration (+) RNA-Seq: 5 mM, HEK293T, reporter: mCherry (pCS4076), ligand present: yes
Summary of the method: (§2)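 Only sequences with at least 100 DNA reads were analyzed, from HEK293T cells transfected with 4 µg per 6-well well of ribozyme switch library plasmids 72 h before RNA extraction with EDTA. Any ligand was added 1 h before transfection. RNA level was defined as RNA over DNA reads, normalized to a spiked-in non-cleaving sequence or to the top sequences, then scaled and log-transformed. The top set was 25 sequences, and the scaling was ×100 followed by log10.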

hypoxanthine [3] = variants of: B1; assay: normalized RNA/DNA level without ligand (relative to sTRSVctl = 100) (log10 (% of sTRSVctl)); ligand: hypoxanthine (xanthine aptamer); higher = less ribozyme self-cleavage, higher mRNA level; details: HEK293T, reporter: mCherry (pCS4076), ligand present: no
Summary of the method: as §2

hypoxanthine [4] = variants of: B1; assay: FACS-Seq fitted mean relative fluorescence mCherry/BFP with ligand (log10 relative fluorescence); ligand: hypoxanthine (xanthine aptamer); ligand concentration (+) FACS-Seq: 5 mM; higher = higher reporter protein expression; details: HEK293T, ligand present: yes
Summary of the method: as §1

Variant	FACS-Seq fitted mean (log10) (hypoxanthine [1])	normalized RNA/DNA level with ligand (log10) (hypoxanthine [2])	normalized RNA/DNA level without ligand (log10) (hypoxanthine [3])	FACS-Seq fitted mean (log10) (hypoxanthine [4])
GCGGUC	0.327 ± 0.046	1.878 ± 0.015	1.5197 ± 0.00012	0.644 ± 0.063
UCGUGA	0.414 ± 0.036	1.84 ± 0.022	1.27 ± 0.039	0.578 ± 0.16
UCGUGC	0.446 ± 0.039	1.953 ± 0.016	1.78 ± 0.072	0.686 ± 0.013
UCGUGG	0.572 ± 0.0094	1.9 ± 0.024	1.593 ± 0.0033	0.819 ± 0.066
UCUGUG	-0.545 ± 0.051	1.91 ± 0.052	1.706 ± 0.0071	-0.796 ± 0.03
UCUCUG	0.0437 ± 0.023	1.77 ± 0.022	1.3 ± 0.032	0.522 ± 0.028
UCUCUA	0.399 ± 0.023	1.94 ± 0.058	1.743 ± 0.0054	0.493 ± 0.055
CCUCGA	0.268 ± 0.026	2 ± 0.011	1.87 ± 0.044	0.314 ± 0.059
CCUUGC	0.165 ± 0.04	1.95 ± 0.082	1.86 ± 0.027	-0.0481 ± 0.064
UGAACA	0.901 ± 0.04	1.955 ± 0.014	1.86 ± 0.027	0.802 ± 0.072
GCUCGG	0.247 ± 0.027	1.88 ± 0.074	1.4 ± 0.022	0.851 ± 0.056
GCUCGA	0.14 ± 0.0058	1.92 ± 0.02	1.67 ± 0.088	0.526 ± 0.025
AGAAAA	0.559 ± 0.023	1.89 ± 0.023	1.78 ± 0.048	0.133 ± 0.027
AGAAAC	0.541 ± 0.013	1.93 ± 0.055	1.796 ± 0.01	0.58 ± 0.023
AGAAAU	0.552 ± 0.024	1.93 ± 0.036	1.83 ± 0.034	0.414 ± 0.021
UCGGGA	0.091 ± 0.059	1.82 ± 0.078	1.23 ± 0.021	0.767 ± 0.094
ACUAGG	0.706 ± 0.049	1.8318 ± 0.00012	1.424 ± 0.009	0.657 ± 0.03
ACUAGA	0.305 ± 0.02	1.919 ± 0.0065	1.73 ± 0.032	0.429 ± 0.0044
ACUAAU	0.475 ± 0.018	1.92 ± 0.046	1.67 ± 0.058	0.628 ± 0.041
ACUAAA	0.324 ± 0.083	1.897 ± 0.0002	1.76 ± 0.018	0.54 ± 0.027
ACUAAC	-0.0807 ± 0.092	1.95 ± 0.057	1.8 ± 0.041	0.0498 ± 0.032
ACUAAG	-0.0198 ± 0.018	1.833 ± 0.017	1.5247 ± 0.0014	0.236 ± 0.15
GCUGCG	0.192 ± 0.0063	1.92 ± 0.057	1.6 ± 0.023	0.503 ± 0.0077
GCGUGU	0.0904 ± 0.007	1.84 ± 0.049	1.42 ± 0.039	0.45 ± 0.049

Variant	FACS-Seq fitted mean (log10) (hypoxanthine [1])	normalized RNA/DNA level with ligand (log10) (hypoxanthine [2])	normalized RNA/DNA level without ligand (log10) (hypoxanthine [3])	FACS-Seq fitted mean (log10) (hypoxanthine [4])
GCGUGG	0.196 ± 0.064	1.6355 ± 0.0011	1.13 ± 0.019	0.684 ± 0.047
GCGUGA	0.278 ± 0.054	1.82 ± 0.048	1.4 ± 0.017	0.618 ± 0.062
GGAAAA	-0.00225 ± 0.06	1.925 ± 0.018	1.686 ± 0.006	0.168 ± 0.059
GGAAAG	0.282 ± 0.038	1.8 ± 0.018	1.34 ± 0.094	0.711 ± 0.029
ACGGAU	-0.0352 ± 0.029	1.7216 ± 0.0016	1.24 ± 0.068	0.537 ± 0.024
ACGGAG	-0.0823 ± 0.0037	1.62 ± 0.031	1.12 ± 0.052	0.482 ± 0.12
ACGGAA	0.072 ± 0.016	1.891 ± 0.013	1.45 ± 0.034	0.327 ± 0.04
ACGGAC	0.332 ± 0.11	1.92 ± 0.06	1.7 ± 0.029	0.565 ± 0.062
ACUGGU	0.0934 ± 0.044	1.926 ± 0.0036	1.65 ± 0.06	0.1 ± 0.11
ACUGGA	0.309 ± 0.0042	1.952 ± 0.017	1.71 ± 0.03	0.587 ± 0.064
GCUGGC	0.495 ± 0.075	1.85 ± 0.12	1.78 ± 0.038	0.468 ± 0.018
GCUGGG	0.121 ± 0.13	1.94 ± 0.0053	1.55 ± 0.083	0.547 ± 0.091
ACUGCA	0.637 ± 0.031	1.96 ± 0.028	1.83 ± 0.074	0.478 ± 0.012
ACUGCG	0.125 ± 0.0038	1.92 ± 0.03	1.458 ± 0.013	0.557 ± 0.019
CCUAAA	0.725 ± 0.1	1.95 ± 0.035	1.84 ± 0.019	0.615 ± 0.021
GCUAUU	0.263 ± 0.011	1.927 ± 0.011	1.89 ± 0.004	0.412 ± 0.06
GCUAUG	0.086 ± 0.067	1.86 ± 0.025	1.36 ± 0.065	0.318 ± 0.022
ACUAUA	0.701 ± 0.099	1.89 ± 0.039	1.823 ± 0.017	0.693 ± 0.019
GCUGAU	0.294 ± 0.021	1.97 ± 0.029	1.776 ± 0.014	0.376 ± 0.054
GCUGAA	0.332 ± 0.011	1.91 ± 0.032	1.76 ± 0.038	0.43 ± 0.092
UGAAAC	-0.0117 ± 0.11	1.91 ± 0.027	1.81 ± 0.059	0.2594 ± 0.0017
ACGGUA	0.318 ± 0.0024	1.85 ± 0.056	1.57 ± 0.064	0.5989 ± 0.004
CCGGAC	0.196 ± 0.035	2 ± 0.05	1.79 ± 0.077	0.439 ± 0.041
CCGGAG	0.0637 ± 0.015	1.86 ± 0.11	1.36 ± 0.11	0.573 ± 0.039

Variant	FACS-Seq fitted mean (log10) (hypoxanthine [1])	normalized RNA/DNA level with ligand (log10) (hypoxanthine [2])	normalized RNA/DNA level without ligand (log10) (hypoxanthine [3])	FACS-Seq fitted mean (log10) (hypoxanthine [4])
ACUUCG	0.592 ± 0.03	1.9 ± 0.024	1.6 ± 0.1	0.766 ± 0.1
ACUCCG	0.262 ± 0.039	1.895 ± 0.0092	1.44 ± 0.026	0.615 ± 0.02
ACUCCC	-0.354 ± 0.031	1.96 ± 0.06	1.924 ± 0.019	-0.746 ± 0.075
GCUCUG	0.3 ± 0.0076	1.89 ± 0.045	1.32 ± 0.05	0.685 ± 0.024
CCGGUG	0.264 ± 0.0078	1.87 ± 0.087	1.45 ± 0.044	0.594 ± 0.0013
CCGGUU	0.42 ± 0.083	2.026 ± 0.011	1.91 ± 0.032	0.297 ± 0.098
UCUAUC	0.701 ± 0.082	2.046 ± 0.019	2 ± 0.023	0.59 ± 0.08
UCUAUG	0.305 ± 0.056	1.906 ± 0.008	1.74 ± 0.019	0.426 ± 0.018
UCGGCG	0.493 ± 0.023	1.982 ± 0.0021	1.8 ± 0.03	0.666 ± 0.025
GCUUCG	0.0523 ± 0.089	1.929 ± 0.006	1.59 ± 0.029	0.504 ± 0.069
ACUUAA	0.504 ± 0.046	1.933 ± 0.0065	1.787 ± 0.01	0.596 ± 0.075
ACUUAG	0.227 ± 0.048	1.81 ± 0.025	1.52 ± 0.061	0.503 ± 0.042
GCGGCG	-0.49 ± 0.037	1.93 ± 0.045	1.514 ± 0.012	-0.0806 ± 0.025
GCUUAG	0.401 ± 0.077	1.83 ± 0.05	1.4 ± 0.025	0.791 ± 0.096
GCUUAA	0.221 ± 0.11	1.92 ± 0.047	1.79 ± 0.036	0.508 ± 0.0091
CCUGCG	-0.205 ± 0.019	1.98 ± 0.015	1.86 ± 0.0037	-0.2206 ± 0.00099
ACUACU	0.265 ± 0.031	1.93 ± 0.069	1.821 ± 0.01	0.443 ± 0.046
ACUACG	0.398 ± 0.086	1.93 ± 0.071	1.471 ± 0.0099	0.666 ± 0.077
ACUGUG	0.119 ± 0.026	1.85 ± 0.033	1.42 ± 0.069	0.0877 ± 0.23
CCUGUG	0.676 ± 0.039	1.97 ± 0.026	1.86 ± 0.051	0.685 ± 0.086
CCUGUA	0.473 ± 0.019	1.892 ± 0.015	1.89 ± 0.041	0.515 ± 0.006
GCUACC	0.407 ± 0.037	1.91 ± 0.07	1.76 ± 0.024	0.599 ± 0.028
GCUACG	0.064 ± 0.029	1.95 ± 0.078	1.517 ± 0.015	0.42 ± 0.0069
UCGGAG	-0.494 ± 0.057	1.8831 ± 0.00053	1.41 ± 0.064	-0.522 ± 0.082
